Test results reported in paper PMC9074039, “Molecular analysis and essentiality of Aro1 shikimate biosynthesis multi-enzyme in Candida albicans” (Life Science Alliance, 2022).

Legend:
[1] = biological target: the molecule itself; experiment: crystal structure; Aro1_(SK-DHQase-DHSD), sitting drop, room temperature; four copies in the asymmetric unit
[2] = biological target: the molecule itself; experiment: SEC; Superdex 200, 150 mM NaCl, 10 mM Hepes pH 7.5; tag-free Aro1 purified from C. albicans
[3] = biological target: the molecule itself; experiment: crystal structure; Aro1_(DHQS) with 2 mM NADH and 0.5 mM ZnCl2, sitting drop, room temperature; two copies in the asymmetric unit

B1: Aro1_(SK-DHQase-DHSD), C. albicans Aro1 residues 845-1,551 (SK, DHQase and DHSD domains) (domain or fragment, UniProt Q5AME2 845-1551, looked up)
chain: PPFNTDKHVDKSSDKSIIVIGMRGTGKSTLSEWLASFLGFKMLDMDKYLEEKLGTGIKSLIKAKGWEYFRQEEAIVAKECFTKFSKGYVLSTGGGIVEGEDARQQLKSYADNGGIVLHLHRDLDETVTFLAADTTRPAYSSEVQEVWLRREKWYHECSNYHFYSSHCSTEDEFNHLRRSFVNYIKLITGAERPVVPAGRSAAVVLTSPDLNEVVGDLESITIGADAVELRVDLFKDTSAEFVAAQIAVIRKHADLPIIYTVRTVSQGGKFPDENVDELKSLLLLGIRLGVAYVDLQLTAPNELIEEISSKKGFTRVIGTYQDINGELKWNNVEWKNKYNQGVSMNADIVRLVGKANSIQDNLDLENFKKQNTLKPLIAFNLGSQGKLSQVLNGTFTPISHKLLPNDEEFLTIGELNQTYFDIGGFTAKKFWVIGSPIEHSRSPNLHNAGYKALNLPYQFGRFEATDVDVVYDNLINKPDFGGLAITMPLKLDIMKFATKLSDAAETIGAVNTLIPIEGGYFGDNTDWVGISNSFIRAGVPPKSSSNGLVVGAGGTSRAAIYALHQMGCAKIYLVNRTAAKLEELVKSFPKDYNLEIVETEQQADKASKVSLAVSCIPADKPLDGEVLKKIERILSNGSEQSAGFKPTLLEASYKPRVTPIMKLTEEQYKWKVIPGVEMLVNQGDRQFKLHTGFTAPYEIIHRAVVEE
notes: Aro1, Candida albicans, residues 845-1551: SK domain (857-1032), linker (1033-1038), DHQase domain (1039-1267), DHSD domain (1268-1551); Four copies in the asymmetric unit; also called Aro1_(SK-DHQ-DHSD); source: E. coli BL21(DE3) Gold, purified (Ni-NTA, TEV cleavage, second Ni-NTA); not shown: His6, N-terminal, cleaved
B1: binds [1].

B2: full-length C. albicans Aro1 (enzyme, UniProt Q5AME2 1-1551, looked up)
chain: MSIEKVPILGKETIHVGYGIADHIVREVIANLASSTYVIVTDTNMARTPQYSKLTDDFKTNLSEKRPESRLLTYCVSPGENNKNRATKAAVEDFLLQQGCTRDTVILAVGGGVIGDMIGFVAATFMRGVRVVQVPTTLLAMVDSSVGGKTAIDTPLGKNFIGAFHQPEYVFCDVSFLETLPARQFINGMAEVVKTAAIWNEEEFTRLENFSKKFLSVVTSKKPDLQSIKAELVKTVLESVRVKAGVVSSDEKEAGLRNLLNFGHTIGHAIEAVLTPEALHGECVSIGMIKEAELSRYLGILPPVAVARLSKCLVAYGLPVSIDDKEFLKKVGPKRHYVEIDILLKKMAIDKKNDGSKIRCVLLEKIGKCYQLKAHQVSKQDLSFVLTDEVLVHPFTNPPKENIIVPPGSKSISNRALILAALGNGTVRVKNLLHSDDTKHMLDAVASLKGAEISTEDNGETIVVKGNGGNLVTSGEELYLGNAGTASRFLTTVASLVGKSQASDDVILTGNARMQERPIGPLVDALGSNGSEIEYLNKQGSLPLKISAGNGLKGGRIELAATISSQYVSSILMCAPYAKEPVTLALVGGKPISQLYIDMTCAMMKSFGIEVTKSTTEEYTYHIPKGTYKNPSEYVIESDASSATYPLAFAAMTGTSCTIPNIGSSSLQGDAKFAVDVLKPMGCKVEQTTTSTTVTGPPRGHLKPLPHVDMEPMTDAFLTASVVAAVAKGGSSTSITGIANQRVKECNRIEAMVTELAKFGVPANELPDGIEIHGIDIEDLKTPEISKRGVSSYDDHRVAMSFSLLAGLCKEPVLILERSTTGKTWPGWWDILHSKFKIELDGYEPPFNTDKHVDKSSDKSIIVIGMRGTGKSTLSEWLASFLGFKMLDMDKYLEEKLGTGIKSLIKAKGWEYFRQEEAIVAKECFTKFSKGYVLSTGGGIVEGEDARQQLKSYADNGGIVLHLHRDLDETVTFLAADTTRPAYSSEVQEVWLRREKWYHECSNYHFYSSHCSTEDEFNHLRRSFVNYIKLITGAERPVVPAGRSAAVVLTSPDLNEVVGDLESITIGADAVELRVDLFKDTSAEFVAAQIAVIRKHADLPIIYTVRTVSQGGKFPDENVDELKSLLLLGIRLGVAYVDLQLTAPNELIEEISSKKGFTRVIGTYQDINGELKWNNVEWKNKYNQGVSMNADIVRLVGKANSIQDNLDLENFKKQNTLKPLIAFNLGSQGKLSQVLNGTFTPISHKLLPNDEEFLTIGELNQTYFDIGGFTAKKFWVIGSPIEHSRSPNLHNAGYKALNLPYQFGRFEATDVDVVYDNLINKPDFGGLAITMPLKLDIMKFATKLSDAAETIGAVNTLIPIEGGYFGDNTDWVGISNSFIRAGVPPKSSSNGLVVGAGGTSRAAIYALHQMGCAKIYLVNRTAAKLEELVKSFPKDYNLEIVETEQQADKASKVSLAVSCIPADKPLDGEVLKKIERILSNGSEQSAGFKPTLLEASYKPRVTPIMKLTEEQYKWKVIPGVEMLVNQGDRQFKLHTGFTAPYEIIHRAVVEE
notes: Aro1 pentafunctional shikimate pathway multi-enzyme (DHQS, EPSPS, SK, DHQase, DHSD domains), Candida albicans, full length, residues 1-1551; Expressed from the tagged genomic ARO1 alleles under the tetO promoter in C. albicans; the His6TEV tag was removed with TEV protease before SEC and cryo-EM; also called His6TEVAro1; wild-type Aro1; source: C. albicans CaLC6830 …
B2 was tested, and the “stoichiometry N” value [2] was 2.

B3: Aro1_(DHQS), C. albicans Aro1 residues 1-387 (DHQS domain) (domain or fragment, UniProt Q5AME2 1-387, looked up)
chain: MSIEKVPILGKETIHVGYGIADHIVREVIANLASSTYVIVTDTNMARTPQYSKLTDDFKTNLSEKRPESRLLTYCVSPGENNKNRATKAAVEDFLLQQGCTRDTVILAVGGGVIGDMIGFVAATFMRGVRVVQVPTTLLAMVDSSVGGKTAIDTPLGKNFIGAFHQPEYVFCDVSFLETLPARQFINGMAEVVKTAAIWNEEEFTRLENFSKKFLSVVTSKKPDLQSIKAELVKTVLESVRVKAGVVSSDEKEAGLRNLLNFGHTIGHAIEAVLTPEALHGECVSIGMIKEAELSRYLGILPPVAVARLSKCLVAYGLPVSIDDKEFLKKVGPKRHYVEIDILLKKMAIDKKNDGSKIRCVLLEKIGKCYQLKAHQVSKQDLSFVLT
notes: Aro1, Candida albicans, residues 1-387, 3-dehydroquinate synthase (DHQS) domain; Crystallised with NADH and ZnCl2; source: E. coli BL21(DE3) Gold, purified (Ni-NTA, TEV cleavage, second Ni-NTA); not shown: His6, N-terminal, cleaved
B3: binds [3].
